The values that follow are results of earlier work, collected in PMC8515877.

In the data set the target is GnRH receptor (Mus musculus) (UniProt Q01776).
UniProt Q01776, sequence (Q01776 whole entry): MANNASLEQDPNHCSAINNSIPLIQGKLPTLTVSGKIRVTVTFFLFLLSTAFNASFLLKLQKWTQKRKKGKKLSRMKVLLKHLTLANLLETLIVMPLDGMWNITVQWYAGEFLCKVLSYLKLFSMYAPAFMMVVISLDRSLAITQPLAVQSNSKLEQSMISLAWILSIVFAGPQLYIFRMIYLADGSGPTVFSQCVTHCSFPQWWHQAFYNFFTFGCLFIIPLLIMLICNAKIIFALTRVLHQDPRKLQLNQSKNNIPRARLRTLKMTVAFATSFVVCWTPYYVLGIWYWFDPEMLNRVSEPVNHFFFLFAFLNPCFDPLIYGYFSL

GnRH, sequence (P13562 whole entry, looked up): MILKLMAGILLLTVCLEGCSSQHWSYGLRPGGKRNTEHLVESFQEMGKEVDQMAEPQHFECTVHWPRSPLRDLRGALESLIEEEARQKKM

Regarding GnRH (from UniProt P13562), the Kd was 1.4 nM.
